The source of these data is FireProtDB (doi:10.1038/srep15545).

The conditions of this data set: Escherichia coli (strain K12); pH 9; Thermal; DSC; Glycine 50mM; reversible: yes; whole UniProt chain shown.

B1: Divalent-cation tolerance protein CutA wild type, P69488 (protein)
chain: MLDEKSSNTASVVVLCTAPDEATAQDLAAKVLAEKLAACATLIPGATSLYYWEGKLEQEYEVQMILKTTVSHQQALLECLKSHHPYQTPELLVLPVTHGDTDYLSWLNASLR
For orientation: Tm means the temperature at which the thermal transition is half complete. In the case of B1, the midpoint of thermal melting (Tm) amounted to 85.6 °C and the “unfolding enthalpy (calorimetric)” value worked out at 208 kcal/mol.
